We go through four molecules from article doi:10.1101/2023.08.14.553221 (bioRxiv, 2023).

In assay [1] the target is T1, Fibronectin (FN), full-length, isolated from human plasma (human, UniProt P02751-1). The assay is described as follows: cross-linking.
In assay [2] the target is T1, Fibronectin (FN), full-length, isolated …. The assay is described as follows: microplate protein-binding assay.
For assay [3] the target is unchanged. The assay is described as follows: FN-fiber stretch assay.

B1: human tissue transglutaminase (hrTG2, recombinantly produced in E.coli) (enzyme)
chain: MAEELVLERCDLELETNGRDHHTADLCREKLVVRRGQPFWLTLHFEGRNYEASVDSLTFSVVTGPAPSQEAGTKARFPLRDAVEEGDWTATVVDQQDCTLSLQLTTPANAPIGLYRLSLEASTGYQGSSFVLGHFILLFNAWCPADAVYLDSEEERQEYVLTQQGFIYQGSAKFIKNIPWNFGQFEDGILDICLILLDVNPKFLKNAGRDCSRRSSPVYVGRVVSGMVNCNDDQGVLLGRWDNNYGDGVSPMSWIGSVDILRRWKNHGCQRVKYGQCWVFAAVACTVLRCLGIPTRVVTNYNSAHDQNSNLLIEYFRNEFGEIQGDKSEMIWNFHCWVESWMTRPDLQPGYEGWQALDPTPQEKSEGTYCCGPVPVRAIKEGDLSTKYDAPFVFAEVNADVVDWIQQDDGSVHKSINRSLIVGLKISTKSVGRDEREDITHTYKYPEGSSEEREAFTRANHLNKLAEKEETGMAMRIRVGQSMNMGSDFDVFAHITNNTAEEYVCRLLLCARTVSYNGILGPECGTKYLLNLNLEPFSEKSVPLCILYEKYRDCLTESNLIKVRALLVEPVINSYLLAERDLYLENPEIKIRILGEPKQKRKLVAEVSLQNPLPVALEGCTFTVEGAGLTEEQKTVEIPDPVEAGEEVKVRMDLLPLHMGLHKLVVNFESDKLKAVKGFRNVIIGPA
modifications: Alexa Fluor 647 on primary amines (fiber stretch assay)
Turning to B1, the binding result in assay [1] is on record as “binds”.

B2: short human tissue transglutaminase, aa 1-465 (short hrTG2, barrel 1 and 2 deletion mutant) (domain or fragment)
chain: MAEELVLERCDLELETNGRDHHTADLCREKLVVRRGQPFWLTLHFEGRNYEASVDSLTFSVVTGPAPSQEAGTKARFPLRDAVEEGDWTATVVDQQDCTLSLQLTTPANAPIGLYRLSLEASTGYQGSSFVLGHFILLFNAWCPADAVYLDSEEERQEYVLTQQGFIYQGSAKFIKNIPWNFGQFEDGILDICLILLDVNPKFLKNAGRDCSRRSSPVYVGRVVSGMVNCNDDQGVLLGRWDNNYGDGVSPMSWIGSVDILRRWKNHGCQRVKYGQCWVFAAVACTVLRCLGIPTRVVTNYNSAHDQNSNLLIEYFRNEFGEIQGDKSEMIWNFHCWVESWMTRPDLQPGYEGWQALDPTPQEKSEGTYCCGPVPVRAIKEGDLSTKYDAPFVFAEVNADVVDWIQQDDGSVHKSINRSLIVGLKISTKSVGRDEREDITHTYKYPEGSSEEREAFTRANHLNKL
modifications: Alexa Fluor 647 on primary amines
For B2, in assay [2], the binding result is reported as “binds”.

B3: short human TG2 (aa 1-465) pre-incubated with the irreversible inhibitor Z006 (domain or fragment)
chain: MAEELVLERCDLELETNGRDHHTADLCREKLVVRRGQPFWLTLHFEGRNYEASVDSLTFSVVTGPAPSQEAGTKARFPLRDAVEEGDWTATVVDQQDCTLSLQLTTPANAPIGLYRLSLEASTGYQGSSFVLGHFILLFNAWCPADAVYLDSEEERQEYVLTQQGFIYQGSAKFIKNIPWNFGQFEDGILDICLILLDVNPKFLKNAGRDCSRRSSPVYVGRVVSGMVNCNDDQGVLLGRWDNNYGDGVSPMSWIGSVDILRRWKNHGCQRVKYGQCWVFAAVACTVLRCLGIPTRVVTNYNSAHDQNSNLLIEYFRNEFGEIQGDKSEMIWNFHCWVESWMTRPDLQPGYEGWQALDPTPQEKSEGTYCCGPVPVRAIKEGDLSTKYDAPFVFAEVNADVVDWIQQDDGSVHKSINRSLIVGLKISTKSVGRDEREDITHTYKYPEGSSEEREAFTRANHLNKL
As to B3, in assay [2], the binding result is given as “binds”.

B4: R1R2 peptide (collagen-mimicking peptide derived from the SFS FN-binding protein of Streptococcus equi) (peptide)
peptide: GLNGENQKEPEQGERGEAGPPLSGLSGNNQGRPSLPGLNGENQKEPEQGERGEAGPP
With B4, the binding result in assay [3] is on record as “binds”.
